Legend:
[1] = molecular target: T1, Soluble heterodimeric CD3 protein (hCD3-epsilon/hCD3-delta) with either a human Fc tag (hFcΔAdp/hFc) or a … (human, UniProt P07766 23-126; P04234 22-105); test: SPR Biacore 25C antigen-capture
T1 construct: also called hCD3ε/δ; not shown: Fc tag: human (hFcΔAdp/hFc)
Method: (§1) Measurements were conducted on a T200 Biacore™ instrument.
In the antigen-capture format, heterodimeric CD3 protein was captured using a rabbit anti-mouse Fc or mouse anti-human Fc and the respective antibodies were injected over the captured antigen.
(§2) Kinetic association (kₐ) and dissociation (kd) rate constants were determined by processing and fitting the data to a 1:1 binding model using Scrubber 2.0 curve fitting software. Binding dissociation equilibrium constants (KD) and dissociative half-lives (t₁₁₂) were calculated from the kinetic rate constants as: KD (M)=kd/kₐ; and t_{1/2} (min)=(ln 2/(60*kd). NT=not tested; NB=no binding observed.

[2] = molecular target: T1, Soluble heterodimeric CD3 protein …; test: SPR Biacore 25C antibody-capture
Method: as §1
(§3) Soluble heterodimeric CD3 protein (hCD3-epsilon/hCD3-delta; SEQ ID NOs:1652/1653) with either a human Fc tag (hFcΔAdp/hFc; SEQ ID NOs:1683/1684) or a mouse Fc tag (mFcΔAdp/mFc; SEQ ID NOs:1685/1686) was injected over the antibody captured surface and the binding response was recorded. Heterodimeric CD3 protein was purified using the method described in Davis et al. (US2010/0331527).
as §2

[3] = molecular target: T2, Soluble heterodimeric CD3 protein (hCD3-epsilon/hCD3-delta) with a human Fc tag (hFcΔAdp/hFc) or a mouse Fc … (human, UniProt P07766 23-126; P04234 22-105); test: SPR Biacore, 25 C, antibody-capture format
T2 construct: also called hCD3ε/δ; not shown: Fc tag: human (hFcΔAdp/hFc); which tag was used in Ta
Method: as §1, §3, §2

T1 sequence (P07766 23-126 limits assumed, stated change not applied, chain 1 of 2): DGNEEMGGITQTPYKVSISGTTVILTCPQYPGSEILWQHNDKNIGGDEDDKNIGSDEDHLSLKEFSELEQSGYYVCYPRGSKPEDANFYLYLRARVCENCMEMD
T1 sequence (P04234 22-105 limits assumed, stated change not applied, chain 2 of 2): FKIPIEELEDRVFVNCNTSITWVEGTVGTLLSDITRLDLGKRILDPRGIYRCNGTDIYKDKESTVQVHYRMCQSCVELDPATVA
T2 sequence (P07766 23-126 limits assumed, stated change not applied, chain 1 of 2): as the sequence (P07766 23-126 limits assumed, stated change not applied, chain 1 of 2) above
T2 sequence (P04234 22-105 limits assumed, stated change not applied, chain 2 of 2): as the sequence (P04234 22-105 limits assumed, stated change not applied, chain 2 of 2) above

B1: H1H5788P (antibody, V domains shown)
VH: EVQLVESGGGLVQPGRSLRLSCAASGFTFDDYTMHWVRQAPGKGLEWVSGISWNSGSIGYADSVKGRFTISRDNAKNSLYLQMNSLRAEDTALFYCAKDQSGYGHYYYGMDVWGQGTTVTVSS
VL: EIVMTQSPATLSVSPGERATLSCRASQSVSSNLAWYQQKPGQAPRLLIYGASTRATDIPARFSGSGSGTEFTLTISSLQSEDFAVYHCQQYNNWPLTFGGGTKVEIK
notes: H1H: human IgG1 Fc; divalent
For B1, the Kd [1] was 2.33 nM, the “T½” value [1] was 70 min and the koff [1] was 0.000164 s⁻¹. For the same binder, the kon [1] was 70600 M⁻¹ s⁻¹, the Kd [2] was 101 nM and the “T½” value [2] was 40 min. The koff [2] was 0.000291 s⁻¹ and the kon [2] was 2880 M⁻¹ s⁻¹.

B2: H2M3543N (antibody, V domains shown)
VH: EVQLVESGGGLVQPGRSLRLSCAASGFTFDDYTMHWVRQAPGKGLEWVSDISWNSGSIGYADSVKGRFTVSRDNAKNSLYLQMNSLRGEDTALYYCAKDMSGYAHYGYYGMDVWGQGTTVTVSS
VL: DIQMTQSPSSLSASVGDRVTITCRASQSIRNYLNWYQQKPGKVPKLLIYAASSLQSGVPSRFSGSGSGTDFTLTISSLQPEDFATYYCQQSYSNPPITFGQGTRLEIK
notes: Hybridoma antibody, human variable regions, mouse IgG2 Fc
With B2 the Kd [3] was 30 nM, the “T½” value [3] was 51 min and the koff [3] was 0.000226 s⁻¹. For the same binder, the kon [3] was 7530 M⁻¹ s⁻¹.

B3: H1M3544N (antibody, V domains shown)
VH: EVQLVESGGGLVQPGRSLRLSCAASGFTFDDYTMHWVRQVPGKGLEWVSGISWNSGSLAYADSVKGRFTISRDNAKNSLYLQMNSLHPEDTALYYCVKDGSGYGHYSYYGLDVWGQGTTVTVSS
VL: not shown
notes: Hybridoma antibody, human variable regions, mouse IgG1 Fc
With B3 the “T½” value [3] was 82 min.

B4: H2M3547N (antibody, V domains shown)
VH: EAQLVESGGGLVQPGRSLRLSCTTSGFTFDDYTMHWVRQAPGKGLEWISDISWNGGTKGYADSVKGRFTISRDNAKNSLYLQMDSLRGEDTALYYCVKDKSGYGHFYFGLDVWGQGTTVTVSS
VL: DIQMTQSPSSLTASVGDRVTFTCRASQSISRHLSWYQQKPGKAPKLLIYAASSLESGVPSRFSGSGSGTDFTLTISSLHPEDFATYYCQQSYSNPPITFGQGTRLEIK
notes: as for B2
B4 was tested, and the Kd [3] was 15.9 nM, the “T½” value [3] was 33 min and the koff [3] was 0.000347 s⁻¹. It also gave a kon [3] of 21800 M⁻¹ s⁻¹.

B5: H2M3548N (antibody, V domains shown)
VH: EVQLVESGGGLVQPGRSLRLSCAASGFKFADYAMHWVRQAPGKGLEWVSEISWNSGSIGYVDSVKGRFTISRDNAKNSLYLQMNSLRAEDTALYYCVKDKSGYGHYYIGMDVWGQGTTVIVSS
VL: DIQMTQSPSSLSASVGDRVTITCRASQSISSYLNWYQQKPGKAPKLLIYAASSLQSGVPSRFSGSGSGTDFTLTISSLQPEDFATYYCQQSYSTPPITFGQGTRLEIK
notes: as for B2
B5 was tested, and the Kd [3] was 130 nM, the “T½” value [3] was 2 min and the koff [3] was 0.00504 s⁻¹. It also gave a kon [3] of 38700 M⁻¹ s⁻¹.

B6: H2M3563N (antibody, V domains shown)
VH: EVHLVESGGGLVQPGRSLRLSCAASGFTFDDYTMHWVRQAPGKGLEWVSDISWNSGSIGYADSVKGRFTVSRDNAKNSLYLQMNSLRGEDTALYYCAKDMSGYGHYGKYGMDVWGQGTTVTVSS
VL: DIQMTQSPSSLSASVGDRVTITCRASQSIRSYLNWYQQKPGKVPKLLIYAASSLQSGVPSRFSGSGSGTDFTLTINSLQPDDFATYYCQQTYSNPPITFGQGTRLEIK
notes: as for B2
With B6 the Kd [3] was 3.66 nM, the “T½” value [3] was 97 min and the koff [3] was 0.000119 s⁻¹. It also gave a kon [3] of 32400 M⁻¹ s⁻¹.

B7: H1H2712N (antibody, human IgG1, V domains shown)
VH: EVQLVESGGGLVQPGGSLRLSCAATGFTFDDFTMHWVRQAPGKGLEWVSGISWNSGSIGYVDSVKGRFTISRDNAKNSLYLQMNSLRAEDTALYYCAKDNSGYGYYYYGMDVWGQGTTVTVSS
VL: EIVMTQSPATLSVSPGERATLSCRASHSVSRNSAWYQQKPGQAPRLLIYGASTRATGIPARFSGSGSGTEFTLTISSLQSEDFAIYYCQQYNNWPLTFGGGTKVEIK
notes: H1H: human IgG1 Fc; divalent
In the case of B7, the Kd [1] is reported as 0.971 nM, the “T½” value [1] is reported as 133 min and the koff [1] is reported as 8.68e-05 s⁻¹. For the same binder, the kon [1] was 89300 M⁻¹ s⁻¹, the Kd [2] was 88.2 nM and the “T½” value [2] was 43 min. The koff [2] was 0.00027 s⁻¹ and the kon [2] was 3060 M⁻¹ s⁻¹.

B8: H1H5755B (antibody, human IgG1, V domains shown)
VH: EVQLVESGGGVVQPGRSLRLSCAASGFTFSNYGMHWVRQAPGKGLEWVTVILHDGSYKYYADSVKGRFTISRDNSKNTLHLQMNSLRTEDTAVYYCAKGPMFRGVPYNHYYGMDVWGQGTTVTVSS
VL: DIQMTQSPSSLSASVGDRVTITCRASQGIRNDLGWYQQKPGKAPKRLIYAASSLQSGVSSRFSGSGSGTEFTLTISSLQPEDFATYYCLQHNSYPYTFGQGTKVEIKR
notes: H1H: human IgG1 Fc; divalent
In the case of B8, the Kd [1] is reported as 0.936 nM, the “T½” value [1] is reported as 57 min and the koff [1] is reported as 0.000201 s⁻¹. For the same binder, the kon [1] was 215000 M⁻¹ s⁻¹, the Kd [2] was 57.5 nM and the “T½” value [2] was 24 min. It also gave a koff [2] of 0.000472 s⁻¹ and a kon [2] of 8210 M⁻¹ s⁻¹.

B9: H1H5756B (antibody, human IgG1, V domains shown)
VH: EVQLVESGGGVVQPGRSLRLSCTASGFPFSRYGMHWVRQAPGKGLEWVTFIWYDGSNKYYADSAKGRFTITRDNSKNTVYLQMDSLRADDTAVYYCVRDQAALYYFDSWGQGTLVTVSS
VL: DIQMTQSPSSVSASVGDRVTITCRASQGISRWLAWYQQKPGKAPKLLISAASSLQSGVPSRFSGSGSGTDFTLTISGLQPEDFATYYCQKANSFPFTFGPGTKLEIKR
notes: H1H: human IgG1 Fc; divalent
B9 was tested, and the Kd [1] was 0.767 nM, the “T½” value [1] was 105 min and the koff [1] was 0.000111 s⁻¹. For the same binder, the kon [1] was 144000 M⁻¹ s⁻¹, the Kd [2] was 32.6 nM and the “T½” value [2] was 43 min. It also gave a koff [2] of 0.000266 s⁻¹ and a kon [2] of 8150 M⁻¹ s⁻¹.

B10: H1H5757B (antibody, human IgG1, V domains shown)
VH: EVQLVESGGGVVQPGRSLRLSCAASGFTFSSYGMHWVRQAPGKGLEWVTVILHDGSNRYSADSVKGRFTISRDNSKNTLYLQMNILRVEDTAVYYCTKGAMVRGVPYNHYYGMDVWGQGTTVTVSS
VL: DIQMTQSPSSLSASVGDRVTITCRASQGIRNDLGWYQQKPGKAPKRLIYAASILQSGVPSRFSGSGSGTEFTLTISSLQPEDFATYYCLQHNSYPYTFGQGTKLEIKR
notes: H1H: human IgG1 Fc; divalent
For B10, the Kd [1] was 1.64 nM, the “T½” value [1] was 39 min and the koff [1] was 0.000295 s⁻¹. The kon [1] was 180000 M⁻¹ s⁻¹, the Kd [2] was 118 nM and the “T½” value [2] was 15 min. For the same binder, the koff [2] was 0.000785 s⁻¹ and the kon [2] was 6630 M⁻¹ s⁻¹.

B11: H1H5758B (antibody, human IgG1, V domains shown)
VH: EVQLVESGGGVVQPGRSLRLSCAASGFTFSSYGMHWVRQAPGKGLEWVTVILHDGSNRYYADSVKGRFTISRDNSKNTLYLQMNILRAEDTAVYYCTKGAMVRGVPYNHYYGMDVWGQGTTVTVSS
VL: DIVMTQSPSSLSASVGDRVTITCRASQGIRNDLGWYQQKPGKAPKRLIYAASNLQSGVPSRFSGSGSGTEFTLTISSLQPEDFATYYCLQHNSYPYTFGQGTKLEIKR
notes: H1H: human IgG1 Fc; divalent
For B11, the Kd [1] was 3.97 nM, the “T½” value [1] was 21 min and the koff [1] was 0.000562 s⁻¹. For the same binder, the kon [1] was 142000 M⁻¹ s⁻¹, the Kd [2] was 233 nM and the “T½” value [2] was 10 min. For the same binder, the koff [2] was 0.00117 s⁻¹ and the kon [2] was 5020 M⁻¹ s⁻¹.

B12: H1H5763P (antibody, human IgG1, V domains shown)
VH: QVQLVESGGGVVQPGRSLRLSCAASGLTFSSYGMHWVRQAPGKGLEWVAVISYDGSNKYYTDSVKGRFTISRDNSKNTLYLQMNSLRAEDTAVYYCAKGAMVRGVPYNYYYGMDVWGQGTTVTVSS
VL: DIQMTQSPSSLSASVGDRVTITCRASQGIRNDLGWYQQKPGKAPKRLIYAASSLQSGVPSRFSGSGSGTEFTLTISSLQPEDFATYYCLQHNSYPYTFGQGTKLEIK
notes: H1H: human IgG1 Fc; divalent
With B12 the Kd [1] was 92.4 nM, the “T½” value [1] was 1 min and the koff [1] was 0.017 s⁻¹. The kon [1] was 184000 M⁻¹ s⁻¹, the Kd [2] was 2920 nM and the “T½” value [2] was 0 min. It also gave a koff [2] of 0.054 s⁻¹ and a kon [2] of 18500 M⁻¹ s⁻¹.

B13: H1H5764P (antibody, human IgG1, V domains shown)
VH: QVQLVESGGGVVQPGRSLRLSCAASGFTFRSFGMHWVRQAPGKGLEWVAVISYDGNYKYYADSVKGRFTISRDNSKNTLYLQMNSLRAEDTAVHYCAKGAMVRGVPYNFYYGMDVWGQGTTVTVSS
VL: DIQMTQSPSSLSASVGDRVTITCRASQVIRNDLGWYQQKPGKAPKRLIYAASSLQSGIPSRFSGSGSGTEFTLTISSLQPEDFATYYCLQHNSYPYTFGQGTKLEIK
notes: H1H: human IgG1 Fc; divalent
With B13 the Kd [1] was 21 nM, the “T½” value [1] was 2 min and the koff [1] was 0.00736 s⁻¹. The kon [1] was 350000 M⁻¹ s⁻¹, the Kd [2] was 3820 nM and the “T½” value [2] was 1 min. For the same binder, the koff [2] was 0.0159 s⁻¹ and the kon [2] was 4160 M⁻¹ s⁻¹.

B14: H1H5771P (antibody, human IgG1, V domains shown)
VH: EVQLVESGGGLVQPGRSLRLSCAASGFSFDNYAMHWVRQAPGQGLEWVSGISWNSGSRDYADSVKGRFTISRDNARNSLFLQMNSLSNEDTAMYYCAKDKSGYGSYFYGMDVWGQGTTVTVSS
VL: EIVLTQSPGTLSLSPGDRATLSCRASQSIRNIYLAWYQQKPGQAPRLLIHGASTRATGIPDRFSGSGSGTDFTLTISRLEPEDFAVYYCQQRVSLPYTFGQGTKLEIK
notes: H1H: human IgG1 Fc; divalent
With B14 the Kd [1] was 0.371 nM, the “T½” value [1] was 34 min and the koff [1] was 0.000342 s⁻¹. The kon [1] was 923000 M⁻¹ s⁻¹, the Kd [2] was 20.9 nM and the “T½” value [2] was 18 min. For the same binder, the koff [2] was 0.000626 s⁻¹ and the kon [2] was 30000 M⁻¹ s⁻¹.

B15: H1H5752P (antibody, human IgG1, V domains shown)
VH: QVQLVESGGGVVQPGRSLRPSCAASGFSFRDYGMHWVRQAPGKGLEWMAHIWYNGKNKYYADSVKGRFTISRDNSKNTLYLQMNSLRPEDTAVYYCARDGVSARGTPFDYWGQGTLVTVSS
VL: ETTLTQSPAFMSAAPGDKVSISCIASQYIDDDVNWYQQKPGETAIFIIQEASTLVPGISPRFSGSGYGTHFTLTINNIDSEDAAFYFCLQHDNFPYTFGQGTKLEIK
notes: H1H: human IgG1 Fc; divalent
B15: no binding [2].

B16: H1H5782P (antibody, human IgG1, V domains shown)
VH: EVQLVESGGGLVQPGRSLRLSCAASGFTFDDYAMHWVRQAPGKGLEWVSGISWNSGSKDYADSVKGRFTISRDNTRNSLFLQMNSLRTEDTALYYCAKDKSGYGSFYYGMDVWGQGTTVTVSS
VL: not shown
notes: H1H: human IgG1 Fc; divalent
B16: no binding [2].
